According to patent US20090317391A1 (Novartis, published 2009):

Columns and labels:
[1] = test system: tm-PTPε (wild type, stably expressed in NIH/3T3 and Rat-1 cells)
[2] = test system: tm-PTPε A24C mutant, V5-tagged
[3] = test system: tm-PTPε Q26C mutant, V5-tagged
[4] = molecular target: the molecule itself; experiment: V5 immunoblot, non-reducing conditions (figure legend; self-dimer)
Description: Whole cell lysates were prepared from NIH/3T3 transiently transfected with vectors expressing either a V5-tagged wild-type PTPRε or PTPRε P20C, D21C, P22C, G23C, A24C, S25C, Q26C mutants, as well as from empty vector control cell lines. Cell lysis was carried out in the presence of 20 mM iodacetamide. Iodacetamide inhibits glutathione reductase, the enzyme responsible for disulfide bridge reduction in vivo, to minimize dimmer cleavage. All the constructs encode a V5-tagged protein. Samples were analyzed in reducing and non-reducing conditions and immunoblotted, for wild-type or tm-PTPε mutant protein expression by probing with a V5-specific antibody. All the proteins are expressed as monomers in reducing conditions (FIG. 20A). In non-reducing conditions, however, while wild-type tm-PTPε was unable to form a dimer (because it is lacking cysteines in its extracellular domain), all tm-PTPε mutants formed dimers (FIG. 20B).

| Molecule | binding result [4] | also measured |
| --- | --- | --- |
| Src |  | Src-Y529 phosphorylation levels (immunoblot with a Src-Y529 phospho-specific antibody) [1]: tm-PTPε overexpression cause Src-Tyr-529 dephosphorylation in NIH/3T3 and Rat-1 cells; Src-Y529 phosphorylation levels (immunoblot with a Src-Y529 phospho-specific antibody) [2]: Both clones of tm-PTPε A24C mutant were unable to dephosphorylate Src-Y529; Src-Y529 phosphorylation levels (immunoblot with a Src-Y529 phospho-specific antibody) [3]: Like wild-type tm-PTPε, PTPRεQ26C mutant was able to dephosphorylate Src-Y529 |
| tm-PTPε P20C mutant, V5-tagged (receptor, not shown: small tags and cut ends, Transiently expressed in NIH/3T3 cells; also called PTPRε P20C) LRGNETTADSNETTTTSGPCDPGASQPLLAWLLLPLLLLLLVLLLAAYFFRFRKQRKAVVSTSDKKMPNGILEEQEQQRVMLLSRSPSGPKKYFPIPVEHLEEEIRIRSADDCKQFREEFNSLPSGHIQGTFELANKEENREKNRYPNILPNDHSRVILSQLDGIPCSDYINASYIDGYKEKNKFIAAQGPKQETVNDFWRMVWEQKSATIVMLTNLKERKEEKCHQYWPDQGCWTYGNIRVCVEDCVVLVDYTIRKFCIQPQLPDGCKAPRLVSQLHFTSWPDFGVPFTPIGMLKFLKKVKTLNPVHAGPIVVHCSAGVGRTGTFIVIDAMMAMMHAEQKVDVFEFVSRIRNQRPQMVQTDMQYTFIYQALLEYYLYGDTELDVSSLEKHLQTMHGTTTHFDKIGLEEEFRKLTNVRIMKENMRTGNLPANMKKARVIQIIPYDFNRVILSMKRGQEYTDYINASFIDGYRQKDYFIATQGPLAHTVEDFWRMIWEWKSHTIVMLTEVQEREQDKCYQYWPTEGSVTHGEITIEIKNDTLSEAISIRDFLVTLNQPQARQEEQVRVVRQFHFHGWPEIGIPAEGKGMIDLIAAVQKQQQQTGNHPITVHCSAGAGRTGTFIALSNILERVKAEGLLDVFQAVKSLRLQRPHMVQTLEQYEFCYKVVQDFIDIFSDYANFK | binds |  |
| tm-PTPε G23C mutant, V5-tagged (receptor, not shown: small tags and cut ends, Transiently expressed in NIH/3T3 cells; also called PTPRε G23C) LRGNETTADSNETTTTSGPPDPCASQPLLAWLLLPLLLLLLVLLLAAYFFRFRKQRKAVVSTSDKKMPNGILEEQEQQRVMLLSRSPSGPKKYFPIPVEHLEEEIRIRSADDCKQFREEFNSLPSGHIQGTFELANKEENREKNRYPNILPNDHSRVILSQLDGIPCSDYINASYIDGYKEKNKFIAAQGPKQETVNDFWRMVWEQKSATIVMLTNLKERKEEKCHQYWPDQGCWTYGNIRVCVEDCVVLVDYTIRKFCIQPQLPDGCKAPRLVSQLHFTSWPDFGVPFTPIGMLKFLKKVKTLNPVHAGPIVVHCSAGVGRTGTFIVIDAMMAMMHAEQKVDVFEFVSRIRNQRPQMVQTDMQYTFIYQALLEYYLYGDTELDVSSLEKHLQTMHGTTTHFDKIGLEEEFRKLTNVRIMKENMRTGNLPANMKKARVIQIIPYDFNRVILSMKRGQEYTDYINASFIDGYRQKDYFIATQGPLAHTVEDFWRMIWEWKSHTIVMLTEVQEREQDKCYQYWPTEGSVTHGEITIEIKNDTLSEAISIRDFLVTLNQPQARQEEQVRVVRQFHFHGWPEIGIPAEGKGMIDLIAAVQKQQQQTGNHPITVHCSAGAGRTGTFIALSNILERVKAEGLLDVFQAVKSLRLQRPHMVQTLEQYEFCYKVVQDFIDIFSDYANFK | binds |  |
| tm-PTPε P22C mutant, V5-tagged (receptor, not shown: small tags and cut ends, Transiently expressed in NIH/3T3 cells; also called PTPRε P22C) LRGNETTADSNETTTTSGPPDCGASQPLLAWLLLPLLLLLLVLLLAAYFFRFRKQRKAVVSTSDKKMPNGILEEQEQQRVMLLSRSPSGPKKYFPIPVEHLEEEIRIRSADDCKQFREEFNSLPSGHIQGTFELANKEENREKNRYPNILPNDHSRVILSQLDGIPCSDYINASYIDGYKEKNKFIAAQGPKQETVNDFWRMVWEQKSATIVMLTNLKERKEEKCHQYWPDQGCWTYGNIRVCVEDCVVLVDYTIRKFCIQPQLPDGCKAPRLVSQLHFTSWPDFGVPFTPIGMLKFLKKVKTLNPVHAGPIVVHCSAGVGRTGTFIVIDAMMAMMHAEQKVDVFEFVSRIRNQRPQMVQTDMQYTFIYQALLEYYLYGDTELDVSSLEKHLQTMHGTTTHFDKIGLEEEFRKLTNVRIMKENMRTGNLPANMKKARVIQIIPYDFNRVILSMKRGQEYTDYINASFIDGYRQKDYFIATQGPLAHTVEDFWRMIWEWKSHTIVMLTEVQEREQDKCYQYWPTEGSVTHGEITIEIKNDTLSEAISIRDFLVTLNQPQARQEEQVRVVRQFHFHGWPEIGIPAEGKGMIDLIAAVQKQQQQTGNHPITVHCSAGAGRTGTFIALSNILERVKAEGLLDVFQAVKSLRLQRPHMVQTLEQYEFCYKVVQDFIDIFSDYANFK | binds |  |
| tm-PTPε Q26C mutant, V5-tagged (receptor, not shown: small tags and cut ends, Transiently expressed in NIH/3T3 cells (dimer blot) and stably in Rat-1 clones #1 and #30 (Src-Y529 blot); also called PTPRε Q26C; PTPRεQ26C) LRGNETTADSNETTTTSGPPDPGASCPLLAWLLLPLLLLLLVLLLAAYFFRFRKQRKAVVSTSDKKMPNGILEEQEQQRVMLLSRSPSGPKKYFPIPVEHLEEEIRIRSADDCKQFREEFNSLPSGHIQGTFELANKEENREKNRYPNILPNDHSRVILSQLDGIPCSDYINASYIDGYKEKNKFIAAQGPKQETVNDFWRMVWEQKSATIVMLTNLKERKEEKCHQYWPDQGCWTYGNIRVCVEDCVVLVDYTIRKFCIQPQLPDGCKAPRLVSQLHFTSWPDFGVPFTPIGMLKFLKKVKTLNPVHAGPIVVHCSAGVGRTGTFIVIDAMMAMMHAEQKVDVFEFVSRIRNQRPQMVQTDMQYTFIYQALLEYYLYGDTELDVSSLEKHLQTMHGTTTHFDKIGLEEEFRKLTNVRIMKENMRTGNLPANMKKARVIQIIPYDFNRVILSMKRGQEYTDYINASFIDGYRQKDYFIATQGPLAHTVEDFWRMIWEWKSHTIVMLTEVQEREQDKCYQYWPTEGSVTHGEITIEIKNDTLSEAISIRDFLVTLNQPQARQEEQVRVVRQFHFHGWPEIGIPAEGKGMIDLIAAVQKQQQQTGNHPITVHCSAGAGRTGTFIALSNILERVKAEGLLDVFQAVKSLRLQRPHMVQTLEQYEFCYKVVQDFIDIFSDYANFK | binds |  |
| tm-PTPε A24C mutant, V5-tagged (receptor, not shown: small tags and cut ends, Transiently expressed in NIH/3T3 cells (dimer blot) and stably in Rat-1 clones #8 and #26 (Src-Y529 blot); also called PTPRε A24C; PTPRε.A24C) LRGNETTADSNETTTTSGPPDPGCSQPLLAWLLLPLLLLLLVLLLAAYFFRFRKQRKAVVSTSDKKMPNGILEEQEQQRVMLLSRSPSGPKKYFPIPVEHLEEEIRIRSADDCKQFREEFNSLPSGHIQGTFELANKEENREKNRYPNILPNDHSRVILSQLDGIPCSDYINASYIDGYKEKNKFIAAQGPKQETVNDFWRMVWEQKSATIVMLTNLKERKEEKCHQYWPDQGCWTYGNIRVCVEDCVVLVDYTIRKFCIQPQLPDGCKAPRLVSQLHFTSWPDFGVPFTPIGMLKFLKKVKTLNPVHAGPIVVHCSAGVGRTGTFIVIDAMMAMMHAEQKVDVFEFVSRIRNQRPQMVQTDMQYTFIYQALLEYYLYGDTELDVSSLEKHLQTMHGTTTHFDKIGLEEEFRKLTNVRIMKENMRTGNLPANMKKARVIQIIPYDFNRVILSMKRGQEYTDYINASFIDGYRQKDYFIATQGPLAHTVEDFWRMIWEWKSHTIVMLTEVQEREQDKCYQYWPTEGSVTHGEITIEIKNDTLSEAISIRDFLVTLNQPQARQEEQVRVVRQFHFHGWPEIGIPAEGKGMIDLIAAVQKQQQQTGNHPITVHCSAGAGRTGTFIALSNILERVKAEGLLDVFQAVKSLRLQRPHMVQTLEQYEFCYKVVQDFIDIFSDYANFK | binds |  |
| tm-PTPε D21C mutant, V5-tagged (receptor, not shown: small tags and cut ends, Transiently expressed in NIH/3T3 cells; also called PTPRε D21C) LRGNETTADSNETTTTSGPPCPGASQPLLAWLLLPLLLLLLVLLLAAYFFRFRKQRKAVVSTSDKKMPNGILEEQEQQRVMLLSRSPSGPKKYFPIPVEHLEEEIRIRSADDCKQFREEFNSLPSGHIQGTFELANKEENREKNRYPNILPNDHSRVILSQLDGIPCSDYINASYIDGYKEKNKFIAAQGPKQETVNDFWRMVWEQKSATIVMLTNLKERKEEKCHQYWPDQGCWTYGNIRVCVEDCVVLVDYTIRKFCIQPQLPDGCKAPRLVSQLHFTSWPDFGVPFTPIGMLKFLKKVKTLNPVHAGPIVVHCSAGVGRTGTFIVIDAMMAMMHAEQKVDVFEFVSRIRNQRPQMVQTDMQYTFIYQALLEYYLYGDTELDVSSLEKHLQTMHGTTTHFDKIGLEEEFRKLTNVRIMKENMRTGNLPANMKKARVIQIIPYDFNRVILSMKRGQEYTDYINASFIDGYRQKDYFIATQGPLAHTVEDFWRMIWEWKSHTIVMLTEVQEREQDKCYQYWPTEGSVTHGEITIEIKNDTLSEAISIRDFLVTLNQPQARQEEQVRVVRQFHFHGWPEIGIPAEGKGMIDLIAAVQKQQQQTGNHPITVHCSAGAGRTGTFIALSNILERVKAEGLLDVFQAVKSLRLQRPHMVQTLEQYEFCYKVVQDFIDIFSDYANFK | binds |  |
| tm-PTPε S25C mutant, V5-tagged (receptor, not shown: small tags and cut ends, Transiently expressed in NIH/3T3 cells; also called PTPRε S25C) LRGNETTADSNETTTTSGPPDPGACQPLLAWLLLPLLLLLLVLLLAAYFFRFRKQRKAVVSTSDKKMPNGILEEQEQQRVMLLSRSPSGPKKYFPIPVEHLEEEIRIRSADDCKQFREEFNSLPSGHIQGTFELANKEENREKNRYPNILPNDHSRVILSQLDGIPCSDYINASYIDGYKEKNKFIAAQGPKQETVNDFWRMVWEQKSATIVMLTNLKERKEEKCHQYWPDQGCWTYGNIRVCVEDCVVLVDYTIRKFCIQPQLPDGCKAPRLVSQLHFTSWPDFGVPFTPIGMLKFLKKVKTLNPVHAGPIVVHCSAGVGRTGTFIVIDAMMAMMHAEQKVDVFEFVSRIRNQRPQMVQTDMQYTFIYQALLEYYLYGDTELDVSSLEKHLQTMHGTTTHFDKIGLEEEFRKLTNVRIMKENMRTGNLPANMKKARVIQIIPYDFNRVILSMKRGQEYTDYINASFIDGYRQKDYFIATQGPLAHTVEDFWRMIWEWKSHTIVMLTEVQEREQDKCYQYWPTEGSVTHGEITIEIKNDTLSEAISIRDFLVTLNQPQARQEEQVRVVRQFHFHGWPEIGIPAEGKGMIDLIAAVQKQQQQTGNHPITVHCSAGAGRTGTFIALSNILERVKAEGLLDVFQAVKSLRLQRPHMVQTLEQYEFCYKVVQDFIDIFSDYANFK | binds |  |
